The numbers were not newly measured in US12383526B2, “Optimized sigma-1 agonist method of responder selection and treatment” (ANAVEX LIFE SCIENCES CORP., priority 2018, dated 2025), which cites them from elsewhere.

For the series the following is noted: after 72 weeks; CTAD 2018; cited from earlier work.

B1: BAN2401: comparison from other studies: data presented at CTAD 2018 for BAN2401 after 72 weeks (antibody, chains of the INN, looked up, V domains shown)
VH: EVQLVESGGGLVQPGGSLRLSCSASGFTFSSFGMHWVRQAPGKGLEWVAYISSGSSTIYYGDTVKGRFTISRDNAKNSLFLQMSSLRAEDTAVYYCAREGGYYYGRSYYTMDYWGQGTTVTVSS
VL: DVVMTQSPLSLPVTPGAPASISCRSSQSIVHSNGNTYLEWYLQKPGQSPKLLIYKVSNRFSGVPDRFSGSGSGTDFTLRISRVEAEDVGIYYCFQGSHVPPTFGPGTKLEIK
Take B1: the “adjusted mean change from baseline in ADAS-Cog” value is reported as 47% and the “adjusted mean change in ADCOMS” value is on record as 30%.
